Test results published in the DeepSol protein solubility set.

Assay: soluble on expression in E. coli; label from the status in PepcDB or PDB records

For “SMDSSALPDPGFQKITLSSSSEEYQKVWNLFNRTLPFYFVQKIERVQNLALWEVYQWQKGQMQKQNGGKAVDERQLFHGTSAIFVDAICQQNFDWRVCGVHGTSYGKGSYFARDAAYSHHYSKSDTQTHTMFLARVLVGEFVRGNASFVRPPAKEGWSNAFYDSCVNSVSDPSIFVIFEKHQVYPEYVIQYTTSSKPS”, the “soluble on expression in E. coli” value was “soluble”.

For “MGSSHHHHHHSSGRENLYFQGHMHALSPLALAALIVATAPAFADEAKKPGTVFKDCKDCPEMVVLPAGSFTMGTPDDEVGRQPDEGPLHDVTFAKPFAISRYQVTAGELDAYLKATGVKLADGDTRPGRECIAGKPRYQQGPRQPAVCVDYNDVKNYAAWLSKKTGKRYRMLSEAEREYGARAGSAGPFPFPFDEGKEYSIAKHANTYGASDGYNFTSPVGSFPPNAFGVYDMHGNVYEWVADCWHDHYNGAPSDGSAWMEEKCELVQIRGNDWGEPPIFSRSGNRNNAAPSDRGDWIGFRVAREL”, the “soluble on expression in E. coli” value was “soluble”.

For “MSLATARTYLASLTVATEDRTGYDRDLFPHWITQSGTCNTRETILKRDGTNVVTDSSCAATSGSWYSPYDGATWSASSDVDIDHMVPLAEAWDSGADSWTTSRRQSFANDLTRPQLLAVTDNVNQSKGDQDPATWMPSRSAYRCTYVRAWVQVKYYYDLSVDSAEKSAMQGYLANCEGHHHHHH”, the “soluble on expression in E. coli” value was “not soluble”.

In the case of “MAHHHHHHMRAESSGSESQSRQSERTCGVSPGGPGGPGASPSIVVAVRKRPRIPGREDDENDVVRCGENGGPSVTVYEPRTKLDLTPIIEPSSFSYDHVFGEACTNEEVYRGCCQPLLQNVREGGGAVIFAFGQTGSGKTHTMLGTGERPGLYSLAVTELLTMTEHSTMTASFYEAYGAKLYDLLNDRAEVKMLQDEYQNVHIVGITEQIVSSVDDVNALMMRGQQLRAIGTTHANDRSSRSHAVLEIKLKLADSSSESQLGRITFVDLAGSERASDTAETDAKTRREGAEINKSLLALKECIRAMSMRKRHIPFRGSKLTQILRESFVGRCKTCVIAAISPCQGHCEDTLNTLRYADRIKELKGPANPHNGVKPIPCKTCGQPIFIGDRHVCKRQLVVCPHCRQDVDKQELDTHMSECKESPMRCQYCNERMLRSESVGHSRRCARAPIRCGACGATVPRQLIDRHAQQECAEAKVKCRYCGCVQSRQLLAAHEQNCDAAKVACPHCLQFMRKRRLDGHVATCVRNLSRAMHTPRSTALNIIASTSMETSQTLASSSSSIGAQQSIPKSATAQTAASSRASSSHNRNVAAEPAGGQVDLVAADEGTGPLNFTRAHSSRRSSAQLASGVSLANQSQSNRAPGAGGRWNAGALGADEVSAACDSDCGSVVCPYSRYGCPVKVTRLNVAAHLKESMQQHLELVTTYADRVDEQNMQLRRLVIHETDTLSSRVTMERLDK”, the “soluble on expression in E. coli” value is reported as “not soluble”.

With “MGSDKIHHHHHHMMAKLVVCIIDGMADPPPPAGGVTPLAAAHTPHCDTLARHSVAGLCHVIQPEAVPGSEAGLSALLCCEAAASIARGPVEALAQGDPVAPHETVWRLNLVSLGPRGNYYNPAPLLDAATETAARKMLDRALGTQGYSLLGGKGFRHLCAGTEPPVLRDGPQDVCGMTPDTGQADLNSYCPRLARAMTEANVLFRRSRMDLAVWPWGAGTMPDLPGFAETTGQTGALAGGVPLARGLALALGMTAPSIAGATGGIDTDLGAKTRAAIALAAGHDVVYLHVEAPDLHAHALDRVAKRRAIERIDAEVVGPLHMALPDATLLITCDHATDCATGRHMAIPVPFILHKPDGPQDGIATFSEAASARTGIRIDSAATLVRLALAD” the “soluble on expression in E. coli” value was “not soluble”.

For “MLHFYQAVAQLMEHIRGAKAHDVRFTQPLADKPPFALIDWLDAQPIFPKFYWQSRDTREEVVALGQVYTFTDPAPAYAILGDEQRVWGGRSFDGHTAKNPRCMSSFFFLPQIELIRRDEQWLLAVNINNEPQRTLTALQKLLVEVPTLRSMTAHVTRVEHTPTAANWHDLVEKVLAGITEKQFKKVVLARKTTLTLDAPLSAAQLLKASHAQNHHSFHFLLALDSRHSFMGSTPERLYLRHGQNLETEALAGTIGRGANATQDMELAHWLTHDSKNLNENQLVVEDIIESLAPHAEQIHTQREAQLVRLRKVQHLKKRIDAQLKSGVNGVQLLGVLQPTAAVAGLPRQAALAFIAENEPFARGWYAGSMGYFSHAQAEFCVAIRSALVVDKQVQLYAGAGIVPGSIAEHEWQELDKKLSTLLSLITDRLPLGVAS”, the “soluble on expression in E. coli” value was “not soluble”.

In the case of “MGSDKIHHHHHHMSFSNEDRDVFIIKTDRMIDRGALMSRYSRASDPDIRSVFHREFEGNQKRSEDFYRRIFLEYGDESIAELVTAQVGIQNVSNVISKVIEEIRIGLSYLEKSTRYVAYDRKVDGHYLFMQAEKIGLSGEAAREYTDLCNRLFDLYSSTLPRIEEEISRQWPIESFDFNIDGNPRNYKELDENGRKLAQKSYRSSVRSRALDDARFILPASTLTNMGVSGNGRSFIHLIQKLMEYGVPESERLAHDLYEELKGEFPQIIDDALSQHGQDIINYKRSLASLFPYTDGGRFEKVRLIKYSNEREEMQKVLALLMYPFAEDASGIISRIKAMELSEASAILERIRDLRKNRRMKVGRPFEAVNYVFEVTTNYGAFRDLQRHRFLSIVRKPLTVSYGFDVPPIIAKMPDLSEEYAEAMKDAERVYRIIKERYGAWIAQYAVPFAYRYPVVFTTNLAEATYFIELRSTPQAHFDLRDIAIRMYNEIKSVHPSLAGIIKFVDTGDYPLGRLSAEVRKNVKAGGI”, the “soluble on expression in E. coli” value is reported as “not soluble”.

In the case of “SLKNRRVGKKLLMTGGGRCNVTNNRPAEEIISFIPGNGKFLYSAFSQFDNYDIMNFFESNGIHLKEEDHGRMFPVTDKSKSIVDALFNRINELGVTVFTKTQVTKLLRKDDQIIGVETELEKIYAPCVVLTTGGRTYPSTGATGDGYKLAKKMGHTISPLYPTESPIISEEPFILDKTLQGLSLQDVNLTVLNQKGKPLVNHQMDMLFTHFGISGPAALRCSSFINQELTRNGNQPVTVALDVFPTKSFEEVPAKQLTEKQRLSFVELLKDFQFTVTKTLPLEKSFVTGGGISLKEVTPKTMESKLVNGLFFAGELLDINGYTGGYNVTAAFVTGHVAGSHAAEIAEYTYLPIEEV”, the “soluble on expression in E. coli” value is reported as “soluble”.

In the case of “MSLNKYLEQLVLLSKIDQEIDSYEPKIDSINKTLKDAELKIEKINADLEKIDEEIKDIENQKIQNNAHISEFSAKIKDLSKKSGVVKTEKEANALKIEEDIAKEQLDAANDEIVRLDKILENKETYKKELEEEKIKQEQNINEIRVSIKSEMEVLEKDRMSVYDKKTKLVSEMNQKVLSFYEKIRKWAKNTAVVPVKKQACYGCFMKIYDKTYLSVVKGEEIVTCPHCGRILYKEQEEQNEGHHHHHH”, the “soluble on expression in E. coli” value is reported as “soluble”.

In the case of “AAAMKLAYWMYAGPAHIGTLRIASSFKNVHGIMHAPLGDDYFNVMRSMLERERDFTPVTASIVDRHVLARGSQEKVVDNIIRKDTEEHPDLIVLTPTCTSSILQEDLQNFVRRASLSTTADVLLADVNHYRVNELQAADRTLEQIVQFYIDKARRQGTLGTSKTPTPSVNIIGITTLGFHNQHDCRELKQLMADLGIQVNLVIPAAATVHDLQRLPQAWFNLVPYREIGGLTAQYLEREFGQPSVRITPMGVVETARCIRAIQGVLNAQGAGVNYEAFIEQQTREVSQAAWFSRSIDCQNLTGKKAVVFGDNTHAAAMTKILSREMGIHVVWAGTYCKYDADWFRAEVAGFCDEVLITDDHTVVGDAIARVEPAAIFGTQMERHVGKRLNIPCGVIAAPIHIQDFPVGYRPFLGYEGTNQLVDLIYNSFTLGMEDHLLEIFGGHDTKAVIHKGLSADSDLTWTAAGLAELNKIPGFVRGKVKRNTEKFAREQGISEITVEVLYAAKEAVGA”, the “soluble on expression in E. coli” value is reported as “soluble”.

With “MSLTASSSEEKADKSQELVIYSNSVSNGRGDWLTAKAKEAGFNIKMVDIAGAQLADRVIAEKNNAVADMVFGIGAVDSNKIRDQKLLVQYKPKWLDKIDQSLSDKDNYYNPVIVQPLVLIGAPDVKEMPKDWTELGSKYKGKYSIYGLQGGTGRAILASILVRYLDEKGDLGVSEKGWEVAKEYFANAYTLQKGESSVVKALDKESPIQYGMIWGSGALIGQKEQNVEFKVMTPEIGVPFVTEQTMVLSTSKKQALAKEFIDWFGQSEIQVEYSKKFGSIPANKDALKELPEDTKKFVDQVKPQNIDWEAVGKHLDEWVEKAELEYVKEGHHHHHH” the “soluble on expression in E. coli” value was “soluble”.

With “DGTVLPGPVPVTVAVRAPGDENDEDASGEASTPNAVRPRTSCRRDRFVAGIVRGTFHPDLYMCSQDCITFKGKRIGRSKFEKLGNSSMAKWHRSIRVIREDGELEPLGEWLTRHGLPVLKGKQRISRKRTIRI” the “soluble on expression in E. coli” value was “not soluble”.
